{
  "source": "patent US20260144882A1",
  "about": "(BIO THERA SOLUTIONS, published 2026)",
  "binders": {"B1": {"name": "10F4-1D11 scFv (scFv, V domains shown)", "VH": "EVQLVESGGGLVQPGGSLRLSCAASGFIFSDFDMSWVRQAPGKGLEWVSGIKQSSAGINYADSVKGRFTISRDNSKNTLYLQMNSLRAEDTAVYYCAREYSDVVDYVSVRTPLDYWGQGTLVTVSS", "VL": "DIQMTQSPSSLSASVGDRVTITCRASQGISSYLAWYQQKPGKAPKLLIYAASSLQSGVPSRFSGSGSGTDFTLTISSLQPEDFATYYCQQHYTTPPTFGQGTKVEIKR", "notes": "phage clone supernatant"}, "B2": {"name": "10F4-2E6 scFv (scFv, V domains shown)", "VH": "EVQLVESGGGLVQPGGSLRLSCAASGFSFGDYWMSWVRQAPGKGLEWVSAIDQGKATSFYADSVKGRFTISRDNSKNTLYLQMNSLRAEDTAVYYCAREYSDVVDYVSVRTPLDYWGQGTLVTVSS", "VL": "B1 VL", "notes": "phage clone supernatant"}, "B3": {"name": "10F4-1H4 scFv (scFv, V domains shown)", "VH": "EVQLVESGGGLVQPGGSLRLSCAASGFNFTNYWMSWVRQAPGKGLEWVSAISGTGGYTYYADSVKGRFTISRDNSKNTLYLQMNSLRAEDTAVYYCAREYSDVVDYVSVRTPLDYWGQGTLVTVSS", "VL": "B1 VL", "notes": "phage clone supernatant"}, "B4": {"name": "10F4-1F9 scFv (scFv, V domains shown)", "VH": "B1 VH with I28S, S30G, D31G, Q53T, S54Y, S55G, A56G, G57Y, I58R, N59S", "VL": "B1 VL", "notes": "phage clone supernatant"}, "B5": {"name": "10F4-1F2 scFv (scFv, V domains shown)", "VH": "B3 VH with F27Y, W33Y, A50S, G53A, T54Y, G55S, G56D, Y57N, T58R, Y59N", "VL": "B1 VL", "notes": "phage clone supernatant"}, "B6": {"name": "10F4-1H1 scFv (scFv, V domains shown)", "VH": "B1 VH with F27Y, I28S, S30G, D31N, S54Y, S55K, A56G, G57Y, I58T, N59S", "VL": "B1 VL", "notes": "phage clone supernatant"}, "B7": {"name": "10F4-2C4 scFv (scFv, V domains shown)", "VH": "B2 VH with F27Y, A50V, Q53S, K55S, A56G, T57N, S58K, F59R", "VL": "B1 VL", "notes": "phage clone supernatant"}, "B8": {"name": "10F4-2E1 scFv (scFv, V domains shown)", "VH": "B1 VH with I28T, S30T, D31T, F32Y, Q53Y, S55K, A56Y, G57Y, I58T, N59H", "VL": "B1 VL", "notes": "phage clone supernatant"}, "B9": {"name": "10F4-2A5 scFv (scFv, V domains shown)", "VH": "EVQLVESGGGLVQPGGSLRLSCAASGYSFTDYDMSWVRQAPGKGLEWVSGIKTYKSDARYADSVKGRFTISRDNSKNTLYLQMNSLRAEDTAVYYCAREYSDVVDYVSVRTPLDYWGQGTLVTVSS", "VL": "B1 VL", "notes": "phage clone supernatant"}, "B10": {"name": "10F4-2C6 scFv (scFv, V domains shown)", "VH": "B1 VH with I28N, S30G, D31G, S54Y, S55K, A56G, G57Y, I58T, N59S", "VL": "B1 VL", "notes": "phage clone supernatant"}, "B11": {"name": "10F4-2E8 scFv (scFv, V domains shown)", "VH": "B3 VH with T30G, W33D, A50S, S52I, G53P, T54H, G56D, T58S, Y59F", "VL": "B1 VL", "notes": "phage clone supernatant"}, "B12": {"name": "10F4-1E10 scFv (scFv, V domains shown)", "VH": "EVQLVESGGGLVQPGGSLRLSCAASGDTFDTYAMSWVRQAPGKGLEWVSGISQWGAYASYADSVKGRFTISRDNSKNTLYLQMNSLRAEDTAVYYCAREYSDVVDYVSVRTPLDYWGQGTLVTVSS", "VL": "B1 VL", "notes": "phage clone supernatant"}, "B13": {"name": "10F4-1E12 scFv (scFv, V domains shown)", "VH": "B12 VH with D27Y, T28N, D30S, T31S, A33D, Q53D, W54T, A56D, S59N", "VL": "B1 VL", "notes": "phage clone supernatant"}, "B14": {"name": "10F4-1G8 scFv (scFv, V domains shown)", "VH": "B1 VH with I28N, G50V, Q53P, S55G, A56D, G57Y", "VL": "B1 VL", "notes": "phage clone supernatant"}, "B15": {"name": "10F4-1H6 scFv (scFv, V domains shown)", "VH": "B1 VH with I28N, S30Y, F32Y, Q53T, S54H, A56G, I58N, N59G", "VL": "B1 VL", "notes": "phage clone supernatant"}, "B16": {"name": "10F4-2E4 scFv (scFv, V domains shown)", "VH": "B3 VH with F27Y, N28T, T30D, N31S, S52D, G55D, G56S, Y57V, T58A", "VL": "B1 VL", "notes": "phage clone supernatant"}, "B17": {"name": "10F4-1H11 scFv (scFv, V domains shown)", "VH": "EVQLVESGGGLVQPGGSLRLSCAASGYTFTGFWMSWVRQAPGKGLEWVSSISPDSGTKHYADSVKGRFTISRDNSKNTLYLQMNSLRAEDTAVYYCAREYSDVVDYVSVRTPLDYWGQGTLVTVSS", "VL": "B1 VL", "notes": "phage clone supernatant"}, "B18": {"name": "10F4-2F11 scFv (scFv, V domains shown)", "VH": "B9 VH with S28N, D31S, Y54G, K55G, S56G, D57S", "VL": "B1 VL", "notes": "phage clone supernatant"}, "B19": {"name": "10F4-2A1 scFv (scFv, V domains shown)", "VH": "B9 VH with S28T, T30D, T53A, Y54H, K55S, S56D, D57N, A58K", "VL": "B1 VL", "notes": "phage clone supernatant"}, "B20": {"name": "10F4-1F8 scFv (scFv, V domains shown)", "VH": "B9 VH with S28T, G50S, K52I, Y54D, K55G, S56G, D57G, R59F", "VL": "B1 VL", "notes": "phage clone supernatant"}, "B21": {"name": "10F4-2C12 scFv (scFv, V domains shown)", "VH": "B3 VH with F27Y, T30G, N31D, W33S, A50V, S52D, G53T, G55S, G56A, Y59R", "VL": "B1 VL", "notes": "phage clone supernatant"}, "B22": {"name": "10F4-1G5 scFv (scFv, V domains shown)", "VH": "EVQLVESGGGLVQPGGSLRLSCAASGYTFDSSWMSWVRQAPGKGLEWVSSIDAYGDYNFYADSVKGRFTISRDNSKNTLYLQMNSLRAEDTAVYYCAREYSDVVDYVSVRTPLDYWGQGTLVTVSS", "VL": "B1 VL", "notes": "phage clone supernatant"}, "B23": {"name": "10F4-1H7 scFv (scFv, V domains shown)", "VH": "B9 VH with T30D, D31T, T53Q, S56G, D57Y, A58T, R59S", "VL": "B1 VL", "notes": "phage clone supernatant"}, "B24": {"name": "10F4-1G7 scFv (scFv, V domains shown)", "VH": "B2 VH with F27Y, S28N, W33D, A50S, D52I, Q53G, G54H, K55G, A56D, S58K", "VL": "B1 VL", "notes": "phage clone supernatant"}},
  "target": "T1, human Nectin-4 extracellular antigen hNectin-4-His (human, UniProt Q96NY8 32-349)",
  "T1 construct": "C-terminal 8xHis tag included",
  "T1 sequence": "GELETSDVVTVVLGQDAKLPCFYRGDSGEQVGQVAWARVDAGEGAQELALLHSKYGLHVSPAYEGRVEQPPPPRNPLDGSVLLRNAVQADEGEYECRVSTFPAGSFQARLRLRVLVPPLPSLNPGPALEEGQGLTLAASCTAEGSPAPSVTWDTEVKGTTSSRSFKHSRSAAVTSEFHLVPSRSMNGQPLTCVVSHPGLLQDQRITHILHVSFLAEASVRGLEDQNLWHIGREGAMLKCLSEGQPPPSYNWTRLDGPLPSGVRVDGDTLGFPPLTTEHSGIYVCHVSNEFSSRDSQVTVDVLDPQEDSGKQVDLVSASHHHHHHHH",
  "assay": "ELISA, phage scFv supernatant 1:50",
  "note": "Substitutions are numbered along the chain they refer to.",
  "data": [
    {"binder": "B1", "values": [
      {"measurement": "OD value", "result": 1.46, "unit": "OD"}
    ]},
    {"binder": "B2", "values": [
      {"measurement": "OD value", "result": 1.45, "unit": "OD"}
    ]},
    {"binder": "B3", "values": [
      {"measurement": "OD value", "result": 1.38, "unit": "OD"}
    ]},
    {"binder": "B4", "values": [
      {"measurement": "OD value", "result": 1.48, "unit": "OD"}
    ]},
    {"binder": "B5", "values": [
      {"measurement": "OD value", "result": 1.4, "unit": "OD"}
    ]},
    {"binder": "B6", "values": [
      {"measurement": "OD value", "result": 1.61, "unit": "OD"}
    ]},
    {"binder": "B7", "values": [
      {"measurement": "OD value", "result": 1.53, "unit": "OD"}
    ]},
    {"binder": "B8", "values": [
      {"measurement": "OD value", "result": 1.6, "unit": "OD"}
    ]},
    {"binder": "B9", "values": [
      {"measurement": "OD value", "result": 1.59, "unit": "OD"}
    ]},
    {"binder": "B10", "values": [
      {"measurement": "OD value", "result": 1.52, "unit": "OD"}
    ]},
    {"binder": "B11", "values": [
      {"measurement": "OD value", "result": 1.38, "unit": "OD"}
    ]},
    {"binder": "B12", "values": [
      {"measurement": "OD value", "result": 1.29, "unit": "OD"}
    ]},
    {"binder": "B13", "values": [
      {"measurement": "OD value", "result": 1.52, "unit": "OD"}
    ]},
    {"binder": "B14", "values": [
      {"measurement": "OD value", "result": 1.52, "unit": "OD"}
    ]},
    {"binder": "B15", "values": [
      {"measurement": "OD value", "result": 1.48, "unit": "OD"}
    ]},
    {"binder": "B16", "values": [
      {"measurement": "OD value", "result": 1.43, "unit": "OD"}
    ]},
    {"binder": "B17", "values": [
      {"measurement": "OD value", "result": 1.56, "unit": "OD"}
    ]},
    {"binder": "B18", "values": [
      {"measurement": "OD value", "result": 1.46, "unit": "OD"}
    ]},
    {"binder": "B19", "values": [
      {"measurement": "OD value", "result": 1.76, "unit": "OD"}
    ]},
    {"binder": "B20", "values": [
      {"measurement": "OD value", "result": 1.49, "unit": "OD"}
    ]},
    {"binder": "B21", "values": [
      {"measurement": "OD value", "result": 1.45, "unit": "OD"}
    ]},
    {"binder": "B22", "values": [
      {"measurement": "OD value", "result": 1.41, "unit": "OD"}
    ]},
    {"binder": "B23", "values": [
      {"measurement": "OD value", "result": 1.49, "unit": "OD"}
    ]},
    {"binder": "B24", "values": [
      {"measurement": "OD value", "result": 1.54, "unit": "OD"}
    ]}
  ]
}
